Measurements: patent US20160060317A1

Target: receptors for neurturin on the cell surface of human neuroblastoma cell line TGW (JCRB0618)
Test: cell-based or functional assay

Binder	biological activity in vitro (tyrosine hydroxylase reporter gene, luciferase, TGW cells), EC50	reporter gene activity (luciferase, SRE reporter in TGW cells), EC50
human recombinant neurturin (unmodified protein), Q99748 96-197 (ligand) ARLGARPCGLRELEVRVSELGLGYASDETVLFRYCAGACEAAARVYDLGLRRLRQRRRLRRERVRAQPCCRPTAYEDEVSFLDAHSRYHTVHELSARECACV	2.2 ng/ml	–
mono-mPEG-CHO-neurturin, Q99748 96-197; Q99748 96-197 (ligand, here or on the partner: linear 5 kDa polyethylene glycol butyraldehyde-derived PEG on the N-terminal amino acid) chain 1: ARLGARPCGLRELEVRVSELGLGYASDETVLFRYCAGACEAAARVYDLGLRRLRQRRRLRRERVRAQPCCRPTAYEDEVSFLDAHSRYHTVHELSARECACV chain 2: ARLGARPCGLRELEVRVSELGLGYASDETVLFRYCAGACEAAARVYDLGLRRLRQRRRLRRERVRAQPCCRPTAYEDEVSFLDAHSRYHTVHELSARECACV	–	7.4 ng/mL
mono-mPEG-NHS-neurturin, Q99748 96-197; Q99748 96-197 (ligand, here or on the partner: about 5 kDa linear PEG (mPEG-succinimidyl succinat reagent, NHS-method) on the N-terminal amino acid) chain 1: ARLGARPCGLRELEVRVSELGLGYASDETVLFRYCAGACEAAARVYDLGLRRLRQRRRLRRERVRAQPCCRPTAYEDEVSFLDAHSRYHTVHELSARECACV chain 2: ARLGARPCGLRELEVRVSELGLGYASDETVLFRYCAGACEAAARVYDLGLRRLRQRRRLRRERVRAQPCCRPTAYEDEVSFLDAHSRYHTVHELSARECACV	–	9.7 ng/mL
mono-CES0310-neurturin, Q99748 96-197; Q99748 96-197 (ligand, here or on the partner: six-arm branched PEG of about 5 kDa on the N-terminal amino acid) chain 1: ARLGARPCGLRELEVRVSELGLGYASDETVLFRYCAGACEAAARVYDLGLRRLRQRRRLRRERVRAQPCCRPTAYEDEVSFLDAHSRYHTVHELSARECACV chain 2: ARLGARPCGLRELEVRVSELGLGYASDETVLFRYCAGACEAAARVYDLGLRRLRQRRRLRRERVRAQPCCRPTAYEDEVSFLDAHSRYHTVHELSARECACV	–	12 ng/mL
